Laboratory results as given in PMC9459147, “Targeting the Cbl-b-Notch1 axis as a novel immunotherapeutic strategy to boost CD8+ T-cell responses” (Frontiers in Immunology, 2022).

Target: T1, UBE2D2(C85K)-Ub-FL-BODIPY (human | , UniProt P62837 1-147; P0CG48 1-76, C85K, ubiquitinated in vitro; BODIPY labelled in vitro (position not given))
T1 construct: UBE2D2 ubiquitin-conjugating enzyme, human, with C85K; ubiquitin, conjugated in vitro to UBE2D2(C85K); also called UBE2D2(C85K), ubiquitinated and BODIPY labelled; source: E. coli, purified, ubiquitinated and BODIPY labelled in vitro
Assay: AlphaScreen or HTRF; TR-FRET: biotinylated Cbl-b (36-427) with Src-Zap-70 fusion and ATP (enzyme reaction), UBE2D2(C85K)-Ub-FL-BODIPY and Streptavidin-Tb (binding reaction); signal at 520 nm, reference at 620 nm; used to titrate small-molecule Cbl-b inhibitors (NTX-512, NTX-447, NTX-307)
Details: both partners purified

B1: recombinant human Cbl-b (aa 36-427), biotinylated (domain or fragment, UniProt Q13191 36-427, looked up)
chain: PKQAAADRRTVEKTWKLMDKVVRLCQNPKLQLKNSPPYILDILPDTYQHLRLILSKYDDNQKLAQLSENEYFKIYIDSLMKKSKRAIRLFKEGKERMYEEQSQDRRNLTKLSLIFSHMLAEIKAIFPNGQFQGDNFRITKADAAEFWRKFFGDKTIVPWKVFRQCLHEVHQISSGLEAMALKSTIDLTCNDYISVFEFDIFTRLFQPWGSILRNWNFLAVTHPGYMAFLTYDEVKARLQKYSTKPGSYIFRLSCTRLGQWAIGYVTGDGNILQTIPHNKPLFQALIDGSREGFYLYPDGRSYNPDLTGLCEPTPHDHIKVTQEQYELYCEMGSTFQLCKICAENDKDVKIEPCGHLMCTSCLTAWQESDGQGCPFCRCEIKGTEPIIVDPFD
modifications: biotinylated in vitro (position not given)
notes: Cbl-b, human, residues 36-427; In the assay it was mixed with a recombinant human Src (aa 254-536)-Zap-70 (aa 281-297) fusion protein and ATP ('enzyme reaction'); Detected through Streptavidin-Tb; also called Cbl-b enzyme; source: E. coli, purified and biotinylated in vitro
B1: binds.
